B1: FLAG-tagged DND1 wild-type (Dead End, full-length human protein 1-353) [human] / HNRNPC [human (endogenous in HEK293T)] (parent)
chain 1: MQSKRDCELWCERVNPENKAALEAWVRETGIRLVQVNGQRKYGGPPPGWVGSPPPAGSEVFIGRLPQDVYEHQLIPLFQRVGRLYEFRLMMTFSGLNRGFAYARYSSRRGAQAAIATLHNHPLRPSCPLLVCRSTEKCELSVDGLPPNLTRSALLLALQPLGPGLQEARLLPSPGPAPGQIALLKFSSHRAAAMAKKALVEGQSHLCGEQVAVEWLKPDLKQRLRQQLVGPFLRSPQPEGSQLALARDKLGFQGARATLQLLCQRMKLGSPVFLTKCLGIGPAGWHRFWYQVVIPGHPVPFSGLIWVVLTLDGRDGHEVAKDAVSVRLLQALSESGANLLWSAGAEAGTMVKQ
chain 2: MASNVTNKTDPRSMNSRVFIGNLNTLVVKKSDVEAIFSKYGKIVGCSVHKGFAFVQYVNERNARAAVAGEDGRMIAGQVLDINLAAEPKVNRGKAGVKRSAAEMYGSVTEHPSPSPLLSSSFDLDYDFQRDYYDRMYSYPARVPPPPPIARAVVPSKRQRVSGNTSRRGKSGFNSKSGQRGSSKSGKLKGDDLQAIKKELTQIKQKVDSLLENLEKIEKEQSKQAVEMKNDKSEEEQSSSSVKKDETNVKMESEGGADDSAEEGDLLDDDDNEDRGDDQLELIKDDEKEAEEGEDDRDSANGEDDS
B2: FLAG-tagged DND1 wild-type (Dead End, full-length human protein 1-353) [human] / SYNCRIP [human (endogenous in HEK293T)] (parent)
chain 1: B1 chain 1
chain 2: MATEHVNGNGTEEPMDTTSAVIHSENFQTLLDAGLPQKVAEKLDEIYVAGLVAHSDLDERAIEALKEFNEDGALAVLQQFKDSDLSHVQNKSAFLCGVMKTYRQREKQGTKVADSSKGPDEAKIKALLERTGYTLDVTTGQRKYGGPPPDSVYSGQQPSVGTEIFVGKIPRDLFEDELVPLFEKAGPIWDLRLMMDPLTGLNRGYAFVTFCTKEAAQEAVKLYNNHEIRSGKHIGVCISVANNRLFVGSIPKSKTKEQILEEFSKVTEGLTDVILYHQPDDKKKNRGFCFLEYEDHKTAAQARRRLMSGKVKVWGNVGTVEWADPIEDPDPEVMAKVKVLFVRNLANTVTEEILEKAFSQFGKLERVKKLKDYAFIHFDERDGAVKAMEEMNGKDLEGENIEIVFAKPPDQKRKERKAQRQAAKNQMYDDYYYYGPPHMPPPTRGRGRGGRGGYGYPPDYYGYEDYYDYYGYDYHNYRGGYEDPYYGYEDFQVGARGRGGRGARGAAPSRGRGAAPPRGRAGYSQRGGPGSARGVRGARGGAQQQRGRGVRGARGGRGGNVGGKRKADGYNQPDSKRRQTNNQNWGSQPIAQQPLQGGDHSGNYGYKSENQEFYQDTFGQQWK
B3: FLAG-tagged DND1 wild-type (Dead End, full-length human protein 1-353) [human] / MATR3 [human (endogenous in HEK293T)] (parent)
chain 1: B1 chain 1
chain 2: MSKSFQQSSLSRDSQGHGRDLSAAGIGLLAAATQSLSMPASLGRMNQGTARLASLMNLGMSSSLNQQGAHSALSSASTSSHNLQSIFNIGSRGPLPLSSQHRGDADQASNILASFGLSARDLDELSRYPEDKITPENLPQILLQLKRRRTEEGPTLSYGRDGRSATREPPYRVPRDDWEEKRHFRRDSFDDRGPSLNPVLDYDHGSRSQESGYYDRMDYEDDRLRDGERCRDDSFFGETSHNYHKFDSEYERMGRGPGPLQERSLFEKKRGAPPSSNIEDFHGLLPKGYPHLCSICDLPVHSNKEWSQHINGASHSRRCQLLLEIYPEWNPDNDTGHTMGDPFMLQQSTNPAPGILGPPPPSFHLGGPAVGPRGNLGAGNGNLQGPRHMQKGRVETSRVVHIMDFQRGKNLRYQLLQLVEPFGVISNHLILNKINEAFIEMATTEDAQAAVDYYTTTPALVFGKPVRVHLSQKYKRIKKPEGKPDQKFDQKQELGRVIHLSNLPHSGYSDSAVLKLAEPYGKIKNYILMRMKSQAFIEMETREDAMAMVDHCLKKALWFQGRCVKVDLSEKYKKLVLRIPNRGIDLLKKDKSRKRSYSPDGKESPSDKKSKTDGSQKTESSTEGKEQEEKSGEDGEKDTKDDQTEQEPNMLLESEDELLVDEEEAAALLESGSSVGDETDLANLGDVASDGKKEPSDKAVKKDGSASAAAKKKLKKVDKIEELDQENEAALENGIKNEENTEPGAESSENADDPNKDTSENADGQSDENKDDYTIPDEYRIGPYQPNVPVGIDYVIPKTGFYCKLCSLFYTNEEVAKNTHCSSLPHYQKLKKFLNKLAEERRQKKET

Variants of: B1
Experiment: FLAG immunoprecipitation and LC/ESI-MS/MS
Details: with HNRNPC [human (endogenous in HEK293T)]; HEK293T cells, three biological replicates; read off a plot
For chain 1 R98A, the screen value was -0.8.

Variants of: B2
Experiment: FLAG immunoprecipitation and LC/ESI-MS/MS
Details: with SYNCRIP [human (endogenous in HEK293T)]; HEK293T cells, three biological replicates; read off a plot
chain 1 MQSKRDCELWCERVNPENKAALEAWVRETGIRLVQVNGQRKYGGPPPGWVGSPPPAGSEVFIGRLPQDVYEHQLIPLFQRVGRLYEFRLMMTFSGLNAGFAYARYSSRRGAQAAIATLHNHPLRPSCPLLVCRSTEKCELSVDGLPPNLTRSALLLALQPLGPGLQEARLLPSPGPAPGQIALLKFSSHRAAAMAKKALVEGQSHLCGEQVAVEWLKPDLKQRLRQQLVGPFLRSPQPEGSQLALARDKLGFQGARATLQLLCQRMKLGSPVFLTKCLGIGPAGWHRFWYQVVIPGHPVPFSGLIWVVLTLDGRDGHEVAKDAVSVRLLQALSESGANLLWSAGAEAGTMVKQ [chain 1 R98A] was tested, and the screen value was -2.5.

Variants of: B3
Experiment: FLAG immunoprecipitation and LC/ESI-MS/MS
Details: with MATR3 [human (endogenous in HEK293T)]; HEK293T cells, three biological replicates; read off a plot
chain 1 MQSKRDCELWCERVNPENKAALEAWVRETGIRLVQVNGQRKYGGPPPGWVGSPPPAGSEVFIGRLPQDVYEHQLIPLFQRVGRLYEFRLMMTFSGLNAGFAYARYSSRRGAQAAIATLHNHPLRPSCPLLVCRSTEKCELSVDGLPPNLTRSALLLALQPLGPGLQEARLLPSPGPAPGQIALLKFSSHRAAAMAKKALVEGQSHLCGEQVAVEWLKPDLKQRLRQQLVGPFLRSPQPEGSQLALARDKLGFQGARATLQLLCQRMKLGSPVFLTKCLGIGPAGWHRFWYQVVIPGHPVPFSGLIWVVLTLDGRDGHEVAKDAVSVRLLQALSESGANLLWSAGAEAGTMVKQ [chain 1 R98A] showed a screen value of -0.52.
